In US20160145323A1 (INTEGRAL MOLECULAR, published 2016):

Experiments:
[1] = molecular target: T1, CHIKV E2/E1 envelope (S27 strain) displayed on particles (intact CHIKV VLPs, retroviral VLPs, pseudo (Chikungunya virus (S27 strain), UniProt P0DOK1 326-748; Q8JUX5 810-1248)
[2] = molecular target: T1, CHIKV E2/E1 envelope (S27 strain) …; test: cell-based or functional assay
[3] = molecular target: CHIKV envelope mutant E2-Y69A expressed on HEK-293T cells (Chikungunya virus (S27 strain), UniProt P0DOK1 326-748; Q8JUX5 810-1248)
[4] = molecular target: CHIKV envelope mutant E2-F84A expressed on HEK-293T cells (Chikungunya virus (S27 strain), UniProt P0DOK1 326-748; Q8JUX5 810-1248)
[5] = molecular target: CHIKV envelope mutant E2-V113A expressed on HEK-293T cells (Chikungunya virus (S27 strain), UniProt P0DOK1 326-748; Q8JUX5 810-1248)
[6] = molecular target: CHIKV envelope mutant E2-G114A expressed on HEK-293T cells (Chikungunya virus (S27 strain), UniProt P0DOK1 326-748; Q8JUX5 810-1248)
[7] = molecular target: CHIKV envelope mutant E2-T116A expressed on HEK-293T cells (Chikungunya virus (S27 strain), UniProt P0DOK1 326-748; Q8JUX5 810-1248)
[8] = molecular target: CHIKV envelope mutant E2-D117A expressed on HEK-293T cells (Chikungunya virus (S27 strain), UniProt P0DOK1 326-748; Q8JUX5 810-1248)
[9] = molecular target: CHIKV E2/E1 envelope (S27 strain) displayed on particles (intact CHIKV VLPs, retroviral VLPs, pseudo (Chikungunya virus (S27 strain)) (UniProt P0DOK1))
[10] = molecular target: CHIKV E2/E1 envelope (S27 strain) displayed on particles (intact CHIKV VLPs, retroviral VLPs, pseudo (Chikungunya virus (S27 strain)) (UniProt P0DOK1)); test: cell-based or functional assay
[11] = molecular target: CHIKV envelope mutant E2-E24A expressed on HEK-293T cells (Chikungunya virus (S27 strain)) (UniProt P0DOK1)
[12] = molecular target: CHIKV envelope mutant E2-G55A expressed on HEK-293T cells (Chikungunya virus (S27 strain)) (UniProt P0DOK1)
[13] = molecular target: CHIKV envelope mutant E2-I121A expressed on HEK-293T cells (Chikungunya virus (S27 strain)) (UniProt P0DOK1)
[14] = molecular target: CHIKV envelope mutant E2-K66A expressed on HEK-293T cells (Chikungunya virus (S27 strain)) (UniProt P0DOK1)
[15] = molecular target: CHIKV envelope mutant E2-R80A expressed on HEK-293T cells (Chikungunya virus (S27 strain)) (UniProt P0DOK1)
[16] = molecular target: CHIKV envelope mutant E2-W64A expressed on HEK-293T cells (Chikungunya virus (S27 strain)) (UniProt P0DOK1)
[17] = molecular target: CHIKV envelope mutant E2-A162S (Chikungunya virus (S27 strain)) (UniProt P0DOK1)
[18] = molecular target: CHIKV envelope mutant E2-E24A expressed on HEK-293T cells (Chikungunya virus (S27 strain)) (UniProt P0DOK1); remark: listed apart in the source
[19] = molecular target: CHIKV envelope mutant E2-G55A expressed on HEK-293T cells (Chikungunya virus (S27 strain)) (UniProt P0DOK1); remark: listed apart in the source
[20] = molecular target: CHIKV envelope mutant E2-I121A expressed on HEK-293T cells (Chikungunya virus (S27 strain)) (UniProt P0DOK1); remark: listed apart in the source
[21] = molecular target: CHIKV envelope mutant E2-R80A expressed on HEK-293T cells (Chikungunya virus (S27 strain)) (UniProt P0DOK1); remark: listed apart in the source
[22] = molecular target: CHIKV envelope mutant E2-W64A expressed on HEK-293T cells (Chikungunya virus (S27 strain)) (UniProt P0DOK1); remark: listed apart in the source

B1: MAb CAP5A-F6 (IM-CKV065), human IgG1 (antibody, V domains shown)
VH: EVQLVQSGPEVKKPGASVKVSCKASGYTFSNYGVSWVRQAPGQGLEWLGWISAYNGNTKYAQKFEGRVTLTTDSLSDTAYMELRSLRSDDTAVYYCVRDDRSGYYYLPFDFWGQGTLVTVSS
VL: DIQLTQSPSFLSASVGDRVTITCRASQGISSYLAWYQQKPGKAPKLLIFAASTLQSGVPSRFSGSGSGTDYTLTISSLQPEDFATYYCQQSYSNPTFGQGTRLEIK
B1 was tested, and the Kd [1] was 9.3 nM, the koff [1] was 0.0015 s⁻¹ and the kon [1] was 160000 M⁻¹ s⁻¹. For the same binder, the “IC50, neutralization of reporter viruses pseudotyped with CHIKV S27 E2/E1” value [2] was 0.17 µg/mL.

B2: CAP101A-E8 (IM-CKV056), converted to full length human IgG (antibody, V domains shown)
VH: QVQLVQSGGGVVQPGRSLRLSCAASGFTLSTYGLHWVRQAPGKGLEWVAVISYDGTNKYYADSVKGRFTVSWDNSKNTLYLQMNSLRAEDTAVYYCAKDLASSSWSDYYHYGMDVWGQGTMVTVSS
VL: DIQLTQSPSTLSASVGDRITITCRATQSIGSWLAWYQQKPGKAPKLLIYKASSLESGVPSRFSGSGSATEFTLTISGLQPEDFATYYCQQLKSFPLTFGPGTKVDIQ
With B2 the “reactivity relative to WT CHIKV env” value [3] was < 20 % of WT, the “reactivity relative to WT CHIKV env” value [4] was < 20 % of WT and the “reactivity relative to WT CHIKV env” value [5] was < 20 % of WT. For the same binder, the “reactivity relative to WT CHIKV env” value [6] was < 20 % of WT, the “reactivity relative to WT CHIKV env” value [7] was < 20 % of WT and the “reactivity relative to WT CHIKV env” value [8] was < 20 % of WT.

B3: MAb CAP4A-E7 (IM-CKV063), human IgG1 (antibody, V domains shown)
VH: QVQLVQSGAEVKKPGSAVKVSCKASGGTLRKYAISWLRQAPGQGLEWMGGIIPIFGTANYAQKFQGRVTITADESTTTPYTTTPYTSTAYIELTSLRSEDTAVYYCARDLGPLTGYSYSYFDYWGQGTLVTVSS
VL: EIVMTQSPATLSLSPGERATLSCRASQSVSSYLAWYQQKPGQAPRLLIYDASNRATGIPDRFSGSGSGTDFTLTISRLEPEDFAVYYCQQYANSRRTFGQGTKVEIT
B3 showed a Kd [9] of 0.32 nM, a koff [9] of 9.4e-05 s⁻¹ and a kon [9] of 290000 M⁻¹ s⁻¹. For the same binder, the IC50, neutralization of reporter viruses pseudotyped with CHIKV S27 E2/E1 [10] was 0.0074 µg/mL and the PRNT50, live CHIKV S27 on Vero cells [10] was 11 ng/mL.

B4: purified Fab CAP4A-E7 (Fab, V domains shown)
VH: QVQLVQSGAEVKKPGSAVKVSCKASGGTLRKYAISWLRQAPGQGLEWMGGIIPIFGTANYAQKFQGRVTITADESTTTPYTTTPYTSTAYIELTSLRSEDTAVYYCARDLGPLTGYSYSYFDYWGQGTLVTVSS
VL: EIVMTQSPATLSLSPGERATLSCRASQSVSSYLAWYQQKPGQAPRLLIYDASNRATGIPDRFSGSGSGTDFTLTISRLEPEDFAVYYCQQYANSRRTFGQGTKVEIT
In the case of B4, the binding relative to wild-type E2/E1 (% of wild-type) [11] is reported as < 20, the binding relative to wild-type E2/E1 (% of wild-type) [12] is reported as < 20 and the binding relative to wild-type E2/E1 (% of wild-type) [13] is reported as < 20. For the same binder, the binding relative to wild-type E2/E1 (% of wild-type) [14] was < 20, the binding relative to wild-type E2/E1 (% of wild-type) [15] was < 20 and the binding relative to wild-type E2/E1 (% of wild-type) [16] was < 20. It also gave a percent wild-type reactivity (percent wild-type) [17] of 37, a percent wild-type reactivity (percent wild-type) [18] of 15 and a percent wild-type reactivity (percent wild-type) [19] of 12. For the same binder, the percent wild-type reactivity (percent wild-type) [20] was 2, the percent wild-type reactivity (percent wild-type) [21] was 3 and the percent wild-type reactivity (percent wild-type) [22] was 1.
